Measurements from patent US20250002610A1 (Genmab, published 2025).
Positions count from the first letter of the chain named.

Experiments:
[1] = target: T1, human DR4 (Death Receptor 4), cell surface expressed on human tumor cell lines (human, UniProt O00220 24-468); test: flow cytometry, DLD-1 cells, n = 3
T1 construct: also called TNFRSF10A; TRAIL-R1
T1 sequence: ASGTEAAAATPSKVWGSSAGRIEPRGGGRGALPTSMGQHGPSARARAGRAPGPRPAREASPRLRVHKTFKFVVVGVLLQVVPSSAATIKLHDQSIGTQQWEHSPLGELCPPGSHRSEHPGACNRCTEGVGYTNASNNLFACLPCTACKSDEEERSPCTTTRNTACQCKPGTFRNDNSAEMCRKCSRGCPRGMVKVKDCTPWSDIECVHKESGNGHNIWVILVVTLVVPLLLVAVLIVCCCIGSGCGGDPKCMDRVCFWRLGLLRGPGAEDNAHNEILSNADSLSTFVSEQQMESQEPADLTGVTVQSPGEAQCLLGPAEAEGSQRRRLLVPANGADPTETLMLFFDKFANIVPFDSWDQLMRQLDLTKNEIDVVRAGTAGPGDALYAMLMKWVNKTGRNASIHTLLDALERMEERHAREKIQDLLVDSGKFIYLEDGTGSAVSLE

[2] = target: T1, human DR4 (Death Receptor 4), cell …; test: flow cytometry, HCT-15 cells, n = 1
[3] = target: T1, human DR4 (Death Receptor 4), cell …; test: flow cytometry, A549 cells, n = 2
[4] = target: T1, human DR4 (Death Receptor 4), cell …; test: flow cytometry, HCT-116 cells, n = 3
[5] = target: T1, human DR4 (Death Receptor 4), cell …; test: flow cytometry, HCT-116 cells, n = 2
[6] = target: T1, human DR4 (Death Receptor 4), cell …; test: flow cytometry, A549 cells, average ± SEM
[7] = target: T1, human DR4 (Death Receptor 4), cell …; test: flow cytometry, A549 cells, n = 3
[8] = target: T1, human DR4 (Death Receptor 4), cell …; test: flow cytometry, HCT-116 cells, average ± SEM
[9] = target: T2, human FAPα (Fibroblast activation protein alpha), cell surface expressed (human, UniProt Q12884 1-760); test: flow cytometry, human lung fibroblasts, n = 2
T2 construct: Endogenous on human lung fibroblasts and CAFs
T2 sequence: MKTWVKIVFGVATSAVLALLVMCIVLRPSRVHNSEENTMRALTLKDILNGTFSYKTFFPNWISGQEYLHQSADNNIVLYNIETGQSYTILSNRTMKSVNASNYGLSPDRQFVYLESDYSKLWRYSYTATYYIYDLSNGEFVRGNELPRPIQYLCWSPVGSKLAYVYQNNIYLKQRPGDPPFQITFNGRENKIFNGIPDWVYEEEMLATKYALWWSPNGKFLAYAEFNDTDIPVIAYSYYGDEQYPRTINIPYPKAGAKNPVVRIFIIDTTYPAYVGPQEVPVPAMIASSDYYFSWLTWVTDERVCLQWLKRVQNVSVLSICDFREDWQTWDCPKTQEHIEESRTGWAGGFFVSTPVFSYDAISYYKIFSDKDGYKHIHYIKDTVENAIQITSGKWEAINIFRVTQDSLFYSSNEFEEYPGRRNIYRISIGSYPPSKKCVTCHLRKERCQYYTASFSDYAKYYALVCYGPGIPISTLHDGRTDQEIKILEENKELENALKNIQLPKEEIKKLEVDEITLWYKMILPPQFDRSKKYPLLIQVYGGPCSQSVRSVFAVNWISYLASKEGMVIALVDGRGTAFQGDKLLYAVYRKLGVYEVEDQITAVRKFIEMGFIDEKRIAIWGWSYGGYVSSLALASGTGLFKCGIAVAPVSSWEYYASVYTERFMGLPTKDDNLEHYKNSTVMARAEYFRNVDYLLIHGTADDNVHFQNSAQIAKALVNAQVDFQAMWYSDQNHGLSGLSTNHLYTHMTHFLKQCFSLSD
Method: Binding of bispecific or monoclonal antibodies carrying the anti-FAPα arm derived from IgG1-FAPα-FERL (BisG1-FAPα-FERL/DR4-FERR, BisG1-FAPα-FERL/b12-FERR, and IgG1-FAPα-FERL) to cell surface expressed human FAPα was analyzed by flow cytometry using human lung fibroblasts and CAFs, which endogenously express FAPα. BisG1-b12-FERL/b12-FERR was used as negative control.
Human lung fibroblasts and CAFs (50,000 cells/well) were seeded in 96-Well round bottom plates (Greiner Bio-one, Cat #650101). Antibody dilutions were prepared using fluorescence-activated cell sorting (FACS) buffer, consisting of phosphate buffer saline (PBS, Lonza, Cat #BE17-517Q)+1% Bovine Serum Albumin (BSA, Roche, Cat #10735086001)+0.02% Sodium Azide (Bio-World, Cat #41920044-3). Plates were centrifuged, supernatant was removed, cells were resuspended in 50 μL of human Fc Block (BD, Cat #564220, diluted 1:100 in FACS buffer) and 50 μL of viability stain TO-PRO-3 Iodide (Thermo Fisher, Cat #T3605, diluted 1: 25,000 in FACS buffer), and incubated for 15 min at 4° C. Plates were washed three times with FACS buffer. Plates were centrifuged, supernatant was removed, cells were resuspended in 50 μL of antibody dilutions (concentration range 90-0.0005 μg/mL, three-fold dilution steps using FACS buffer) of BisG1-FAPα-FERL/DR4-FERR, BisG1-FAPα-FERL/b12-FERR, BisG1-b12-FERL/b12-FERR (top six concentrations only for CAFs culture) or IgG1-FAPα-FERL (top four concentrations only for CAFs culture) and incubated for 30 min at 4° C. Cells were washed three times with FACS buffer and resuspended in 50 μL of Fluorescein isothiocyanate (FITC)-labeled polyclonal antibody goat anti-mouse IgG1 (Jackson Immuno Research, Cat #109-096-097, diluted 1:100 in FACS buffer). […] Antibody binding to viable cells (TO-PRO-3 negative) was analyzed by flow cytometry on a FACSCelesta™ (BD biosciences) and data were processed using FlowJo_v10.8.1 (FlowJo LLC). Geomean fluorescence intensity, gMFI, was determined and visualized using GraphPad Prism.

B1: IgG1-DR4-FERR (antibody, V domains shown)
VH: QVQLQESGPGLVKPSGTLSLTCAVSGGSISSYSWWSWIRQPPGKGLEWIGELYHSGSTNYNPSLKSRVTISVDKSKNQFSLKLRSVTAADTAVYYCVRGVATIDYWGQGTLVTVSS
VL: QSALTQPPSASGSPGQSVTISCTGTSSDVGGYNFVSWYQQDPGKAPKLLIYEVTKRPSGVPDRFSGSKSGNTASLTVSGLQAEDEADYYCSSYAGSNNVMFGGGTKLTVLG
notes: Bivalent monoclonal IgG1 lambda
- EC50 [1]: 0.23 µg/mL
- EC50 [2]: 0.18 µg/mL
- EC50 [3]: 0.26 µg/mL
- EC50 [4]: 0.11 µg/mL
- EC50 [5]: 0.16 µg/mL
- EC50 [6]: 0.32 µg/mL
- EC50 [7]: 0.21 µg/mL
- EC50 [8]: 0.16 µg/mL

B2: BisG1-FAPα-FERL/b12-FERR (bispecific antibody, human IgG1, kappa)
heavy 1: EVQLLESGGGLVQPGGSPRLSCEASGFTFSSYALSWVRQAPGKGLEWVSAISGSGGGRYYADSVKGRFTISRDNSKNTLFLQMNSLRAEDTAVYYCAKEGYSSSGTYWDHWGQGTLVTVSSASTKGPSVFPLAPSSKSTSGGTAALGCLVKDYFPEPVTVSWNSGALTSGVHTFPAVLQSSGLYSLSSVVTVPSSSLGTQTYICNVNHKPSNTKVDKRVEPKSCDKTHTCPPCPAPEFERGPSVFLFPPKPKDTLMISRTPEVTCVVVDVSHEDPEVKFNWYVDGVEVHNAKTKPREEQYNSTYRVVSVLTVLHQDWLNGKEYKCKVSNKALPAPIEKTISKAKGQPREPQVYTLPPSREEMTKNQVSLTCLVKGFYPSDIAVEWESNGQPENNYKTTPPVLDSDGSFLLYSKLTVDKSRWQQGNVFSCSVMHEALHNHYTQKSLSLSPG
light 1: AIQMTQSPSSVSASVGDRVTITCRASQGVSSWLAWYQQKPGRAPKLLIYVASTLQSGVPSRFSGSGSGTDFTLTINSLQPEDFATYYCQQANSFPPTFGQGTRLEMKRTVAAPSVFIFPPSDEQLKSGTASVVCLLNNFYPREAKVQWKVDNALQSGNSQESVTEQDSKDSTYSLSSTLTLSKADYEKHKVYACEVTHQGLSSPVTKSFNRGEC
heavy 2: QVQLVQSGAEVKKPGASVKVSCQASGYRFSNFVIHWVRQAPGQRFEWMGWINPYNGNKEFSAKFQDRVTFTADTSANTAYMELRSLRSADTAVYYCARVGPYSWDDSPQDNYYMDVWGKGTTVIVSSASTKGPSVFPLAPSSKSTSGGTAALGCLVKDYFPEPVTVSWNSGALTSGVHTFPAVLQSSGLYSLSSVVTVPSSSLGTQTYICNVNHKPSNTKVDKRVEPKSCDKTHTCPPCPAPEFERGPSVFLFPPKPKDTLMISRTPEVTCVVVDVSHEDPEVKFNWYVDGVEVHNAKTKPREEQYNSTYRVVSVLTVLHQDWLNGKEYKCKVSNKALPAPIEKTISKAKGQPREPQVYTLPPSREEMTKNQVSLTCLVKGFYPSDIAVEWESNGQPENNYKTTPPVLDSDGSFFLYSRLTVDKSRWQQGNVFSCSVMHEALHNHYTQKSLSLSPG
light 2: EIVLTQSPGTLSLSPGERATFSCRSSHSIRSRRVAWYQHKPGQAPRLVIHGVSNRASGISDRFSGSGSGTDFTLTITRVEPEDFALYYCQVYGASSYTFGQGTKLERKRTVAAPSVFIFPPSDEQLKSGTASVVCLLNNFYPREAKVQWKVDNALQSGNSQESVTEQDSKDSTYSLSSTLTLSKADYEKHKVYACEVTHQGLSSPVTKSFNRGEC
- EC50 [9]: 0.034 µg/mL

B3: BisG1-b12-FERL/DR4-FERR (bispecific antibody, human IgG1, kappa, lambda)
heavy 1: B2 heavy 2 with F415L, R419K
light 1: B2 light 2
heavy 2: QVQLQESGPGLVKPSGTLSLTCAVSGGSISSYSWWSWIRQPPGKGLEWIGELYHSGSTNYNPSLKSRVTISVDKSKNQFSLKLRSVTAADTAVYYCVRGVATIDYWGQGTLVTVSSASTKGPSVFPLAPSSKSTSGGTAALGCLVKDYFPEPVTVSWNSGALTSGVHTFPAVLQSSGLYSLSSVVTVPSSSLGTQTYICNVNHKPSNTKVDKRVEPKSCDKTHTCPPCPAPEFERGPSVFLFPPKPKDTLMISRTPEVTCVVVDVSHEDPEVKFNWYVDGVEVHNAKTKPREEQYNSTYRVVSVLTVLHQDWLNGKEYKCKVSNKALPAPIEKTISKAKGQPREPQVYTLPPSREEMTKNQVSLTCLVKGFYPSDIAVEWESNGQPENNYKTTPPVLDSDGSFFLYSRLTVDKSRWQQGNVFSCSVMHEALHNHYTQKSLSLSPG
light 2: QSALTQPPSASGSPGQSVTISCTGTSSDVGGYNFVSWYQQDPGKAPKLLIYEVTKRPSGVPDRFSGSKSGNTASLTVSGLQAEDEADYYCSSYAGSNNVMFGGGTKLTVLGQPKAAPSVTLFPPSSEELQANKATLVCLISDFYPGAVTVAWKADSSPVKAGVETTTPSKQSNNKYAASSYLSLTPEQWKSHRSYSCQVTHEGSTVEKTVAPTECS
notes: Fab-arm exchange of IgG1-b12-FERL and IgG1-DR4-FERR; also called bsIgG1-ctrl-FERLxDR4-FERR
- EC50 [1]: 0.64 µg/mL
- EC50 [2]: 0.59 µg/mL
- EC50 [3]: 0.68 µg/mL
- EC50 [4]: 0.55 µg/mL
- EC50 [5]: 0.65 µg/mL
- EC50 [6]: 0.78 µg/mL
- EC50 [7]: 0.78 µg/mL
- EC50 [8]: 0.57 µg/mL

B4: IgG1-FAPα-FERL (antibody)
heavy: B2 heavy 1
light: B2 light 1
notes: Bivalent monoclonal IgG1 kappa
- EC50 [9]: 0.006 µg/mL
